Consider 20 molecules from patent publication US8008547B2, “Glyphosate-N-acetyltransferase (GAT) genes” (E.I. duPont de Nemours, priority 2000, dated 2011).

The data set is described as follows: Standard protocol for determination of kcat and KM (continuous spectrophotometric assay, Acetyl CoA hydrolysis at 235 nm). The note with it: purified protein, about 23° C., 0.2 mM acetyl CoA; for Kcat: 20 mM HEPES pH 6.8, 10% ethylene glycol; for Km: pH 6.8, glyphosate 0.125 to 10 mM. The class given is biochemical. The protocol:
KM was calculated from the initial reaction rates obtained from concentrations of glyphosate ranging from 0.125 to 10 mM, using the Lineweaver-Burke transformation of the Michaelis-Menten equation. kcat/KM was determined by dividing the value determined for kcat by the value determined for KM.
Using this methodology, kinetic parameters for a number of GAT polypeptides exemplified herein were determined. For example, the kcat, KM and kcat/KM for the GAT polypeptide corresponding to SEQ ID NO:445 have been determined to be 322 min^−1, 0.5 mM and 660 mM^−1 min^−1, respectively, using the assay conditions described above. The kcat, KM and kcat/KM for the GAT polypeptide corresponding to SEQ ID NO:457 have been determined to be 118 min^−1, 0.1 mM and 1184 mM^−1 min^−1, respectively, using the assay conditions described above. The kcat, KM and kcat/KM for the GAT polypeptide corresponding to SEQ ID NO:300 have been determined to be 296 min^−1, 0.65 mM and 456 mM^−1 min^−1, respectively, using the assay conditions described above. One of skill in the art can use these numbers to confirm that a GAT activity assay is generating kinetic parameters for a GAT suitable for comparison with the values given herein. For example, the conditions used to compare the activity of GATs should yield the same kinetic constants for SEQ ID NO: 300, 445 and 457 (within normal experimental variance) as those reported herein, when the conditions are used to compare a test GAT with the GAT polypeptides exemplified herein. Kinetic parameters for a number of GAT polypeptide variants were determined according to this methodology and are provided in Table 3.

B1: SEQ ID NO: 390: GAT polypeptide (protein)
chain: MIEVKPINAEDTYEIRHRILRPNQPLEACKYETDLLGGTFHLGGYYRGKLISIASFHQAEHPELEGQKQYQLRGMATLEGYREQKAGSTLIRHAEELLRKKGADLLWCNARTSASGYYKKLGFSEQGEVYDIPPIGPHILMYKKLT
modifications: 6_19C3
notes: GAT polypeptide
For orientation: Km means the substrate concentration at which the rate is half of its maximum. Turning to B1, the Kcat was determined as 0.385 s⁻¹ and the Km worked out at 1400 µM.

B2: SEQ ID NO: 397: GAT polypeptide (protein)
chain: MIEVKPINAEDTYEIRHRILRPNQPLEACMYETDLLEGTFHLGGYYRGKLISIASFHQAEHSELEGQKQYQLRGMATLEGYREQKAGSTLIRHAEELLRKKGADLLWCNARTSASGYYKKLGFSEQGEVYDIPPVGPHILMYKKLT
modifications: 6_22D9
notes: GAT polypeptide
Consider B2, for which the Kcat was 0.732 s⁻¹ and the Michaelis-Menten constant (Km) was 1300 µM.

B3: SEQ ID NO: 403: GAT polypeptide (protein)
chain: MIEVKPINAEDTYEIRHRILRPNQPLEACMYETDLLGGTFHLGGYYRGKLISIASFHQAEHSELEGQKQYQLRGMATLEGYREQKAGSTLIRHAEELLRKKGADLLWCNARTSASGYYKKLGFSEQGEVYDIPPVGPHILMYKKLT
modifications: 6_3G3
notes: GAT polypeptide
For B3, the Kcat is 0.865 s⁻¹ and the Km is 1000 µM.

B4: SEQ ID NO: 396: GAT polypeptide (protein)
chain: MIEVKPINAEDTYEIRHRILRPNRPLEACMYETDLLGGTFHLGGYYRGKLISIASFHQAEHPGLEGKKQYQLRGMATLEEYREQKAGSTLIRHAEELLRKKGADLLWCNARTSASGYYKKLGFSEQGGVYDIPPVGPHILMYKKLT
modifications: 6_22C9
notes: GAT polypeptide
As to B4, the Kcat was 0.79 s⁻¹ and the Km amounted to 3200 µM.

B5: SEQ ID NO: 270: GAT polypeptide (protein)
chain: MIEVKPINAEDTYEIRHRILRPNQPLEACMYETDLLRGTFHLGGYYRGKLVSIASFHQAEHPELEGQKQYQLRGMATLEEYREQKAGSTLIRHAEELLRKKGADLLWCNARTSASGYYKKLGFSEQGGVYDIPPVGPHILMYKKLT
modifications: 10_15F4
notes: GAT polypeptide
With B5, the Kcat was found to be 0.627 s⁻¹ and the Km worked out at 1000 µM.

B6: SEQ ID NO: 404: GAT polypeptide (protein)
chain: MIEVKPINAEDTYEIRHRILRPNQPLEACMYETDLLGGTFHLGGYYRGKLISIASFHQAEHPELEGQKQYQLRGMATLEEYREQKAGSTLIRHAEELLRKKGADLLWCNARTSASGYYKKLGFSEQGEVYDIPPVGPHILMYKKLT
modifications: 6_3H2
notes: GAT polypeptide
As to B6, the Kcat came out at 0.953 s⁻¹ and the Michaelis constant (Km) stood at 1000 µM.

B7: SEQ ID NO: 399: GAT polypeptide (protein)
chain: MIEVKPINAEDTYEIRHRILRPNQPLEACMYGTDLLGGTFHLGGYYRGKLISIASFHQAEQPELEGQKQYQLRGMATLEGYREQKAGSTLIRHAEELLRKKGADLLWCNARTSASGYYKKLGFSEQGGVYDIPPVGPHILMYKKLT
modifications: 6_23H3
notes: GAT polypeptide
On to B7, for which the Kcat came out at 0.732 s⁻¹ and the Km is 1100 µM.

B8: SEQ ID NO: 407: GAT polypeptide (protein)
chain: MIEVKPINAEDTYEIRHRILRPNQPLEACMYETDLLGGTFHLGGYYRGKLISIASFHQAEHPELEGQKQYQLRGMATLEEYREQKAGSTLIRHAEELLRKKGADLLWCNARTSASGYYKKLGFSEQGEVYDIPPIGPHILMYKKLT
modifications: 6_5D11
notes: GAT polypeptide
With B8, the Kcat is 0.253 s⁻¹ and the Km was determined as 1000 µM.

B9: SEQ ID NO: 398: GAT polypeptide (protein)
chain: MIEVKPINAEDTYEIRHRILRPNQPLEACMYETDLLGGTFHLGGYYRGKLISIASFHQAEHSELEGQKQYQLRGMATLDEYREQKAGSTLIRHAEELLRKKGADLLWCNARTSASGYYKKLGFSEQGEVYDIPPIGPHILMYKKLT
modifications: 6_22H9
notes: GAT polypeptide
With B9, the Kcat is 0.29 s⁻¹ and the Km amounted to 1100 µM.

B10: SEQ ID NO: 392: GAT polypeptide (protein)
chain: MIEVKPINAEDTYEIRHRILRPNQPLEACMYETDLLRGTFHLGGYYRGKLISIASFHQAEHSDLEGQKQYQLRGMATLEEYREQKAGSTLIRHAEELLRKKGADLLWCNARTSASGYYKKLGFSEQGEVYDIPPVGPHILMYKKLT
modifications: 6_20A7
notes: GAT polypeptide
As for B10, the Kcat is 0.673 s⁻¹ and the Km turned out to be 1000 µM.

B11: SEQ ID NO: 391: GAT polypeptide (protein)
chain: MIEVKPINAEDTYEIRHRILRPNQPLEACKYETDLLGGTLHLGGYYRGKLISIASFHQAEHPELEGQKQYQLRGMATLEGYREQKAGSTLIRQAEELLRKKGADLLWCNARTSASGYYKKLGFSEQGGVYDIPPVGPHILMYKELT
modifications: 6_19C8
notes: GAT polypeptide
Consider B11, for which the Kcat was 1.25 s⁻¹ and the Km is 2000 µM.

B12: SEQ ID NO: 271: GAT polypeptide (protein)
chain: MIEVKPINAEDTYEIRHRILRPNQPLEACKYETDLLGGTFHLGGYYRGKLISIASFHQAEHPELEGQKQYQLRGMATLEGYREQKAGSTLIRHAEELLRKKGADLLWCNARTSASGYYKKLGFSEQGEVYDTPPVGPHILMYKKLT
modifications: 10_17D1
notes: GAT polypeptide
For the molecule B12, the Kcat was determined as 2.937 s⁻¹ and the Km is 2200 µM.

B13: SEQ ID NO: 395: GAT polypeptide (protein)
chain: MIEVKPINAEDTYEIRHRVLRPNQPLEACMYETDLLGGAFHLGGYYRGKLISIASFHQAEHPELEGQKQYQLRGMATLEGYREQKAGSTLIRHAEELLRKKGADLLWCNARTSASGYYKKLGFSEQGEVYDVPPVGPHILMYKKLT
modifications: 6_21F4
notes: GAT polypeptide
Turning to B13, the Kcat is 0.405 s⁻¹ and the Michaelis-Menten constant (Km) was found to be 700 µM.

B14: SEQ ID NO: 402: GAT polypeptide (protein)
chain: MIEIKPINAEDTYEIRHRILRPNQPLEACMYETDLLGGTFHLGGYYRGKLISIASFHQAEHPELEGQKQYQLRGMATLEGYREQKAGSTLIRHAEELLRKKGADLLWCNARTSASGYYKKLGFSEQGEVYDIPPVGPHILMYKKLT
modifications: 6_3D6
notes: GAT polypeptide
Take B14: the Kcat was determined as 0.695 s⁻¹ and the Michaelis constant (Km) came out at 1000 µM.

B15: SEQ ID NO: 406: GAT polypeptide (protein)
chain: MIEVKPINAEDTYEIRHRVLRPNQPLEACMYETDLLGGTFHLGGYYRGKLIGIASFHQAEHPELEGQKQYQLRGMATLEGYREQKAGSTLIRHAEELLRKKGADLLWCNARTSASGYYEKLGFSGQGEVYDIPPIGPHILMYKKLT
modifications: 6_4B1
notes: GAT polypeptide
Turning to B15, the Kcat amounted to 0.45 s⁻¹ and the Km is 1000 µM.

B16: SEQ ID NO: 400: GAT polypeptide (protein)
chain: MIEVKPINAEDTYEIRHRILRPNQPLEACMYETDLLGGTFHLGGYYRGKLISIASFHQAEHSELEGQKQYQLRGMATLEGYREQKAGSTLIRHAEEILRKKGADLLWCNARTSASGYYKKLGFSEQGGVYDIPPVGPHILMYKKLT
modifications: 6_23H7
notes: GAT polypeptide
In the case of B16, the Kcat stood at 0.77 s⁻¹ and the Michaelis-Menten constant (Km) came to 1200 µM.

B17: SEQ ID NO: 401: GAT polypeptide (protein)
chain: MIEVKPINAEDTYEIRHRVLRPNQPLEACMYETDLLGGTFHLGGYYRGKLISIASFHQAEHPELEGQKPYQLRGMATLEGYREQKAGSTLIRHAEELLRKKGADLLWCNARTSASGYYKKLGFSEQGEIYDIPPIGPHILMYKKLT
modifications: 6_2H1
notes: GAT polypeptide
As to B17, the Kcat was determined as 0.443 s⁻¹ and the Michaelis-Menten constant (Km) worked out at 900 µM.

B18: SEQ ID NO: 405: GAT polypeptide (protein)
chain: MIEVKPINAEDTYEIRHRILRPNQPLEACMYETDLLGGTFHLGGYYRGKLISIASFHQAEHPELEGQKQYQLRGMATLEGYREQKAGSTLIRHAEELLRKKGADLLWCNARTSASGYYKKLGFSEQGEVYDIPPVGPHILMYKKLT
modifications: 6_4A10
notes: GAT polypeptide
B18: the Kcat came out at 0.917 s⁻¹ and the Michaelis-Menten constant (Km) was 1100 µM.

B19: SEQ ID NO: 393: GAT polypeptide (protein)
chain: MIEVKPINAGDTYEIRHRILRPNQPLEACKYETDLLGGTFHLGGYYRGKLISIASFHQAEHSELEGQKQYQLRGMATLEGYREQKAGSTLIRHAEELLRKKGADLLWCNARTSASGYYKKLGFSEQGGVYDIPPVGPHILMYKKLT
modifications: 6_20A9
notes: GAT polypeptide
For B19, the Kcat is 0.752 s⁻¹ and the Km came to 1300 µM.

B20: SEQ ID NO: 394: GAT polypeptide (protein)
chain: MIEVKPINAEDTYEIRHRILRPNQPLEACKYETDLLGGTFHLGGYYRGKLISIASFHQAEHSELEGQKQYQLRGMATLEGYREQKAGSTLIRHAEELLRKKGADLLWCNARTSASGYYKKLGFSEQGEVYDIPPIGPHILMYKKLT
modifications: 6_20H5
notes: GAT polypeptide
For the molecule B20, the Kcat came out at 0.325 s⁻¹ and the Km worked out at 800 µM.
